# Experimental data: PMC12431856, “Synthetic ZFTA fusions pinpoint disordered protein domain acquisition as a mechanism of brain tumorigenesis”
# B1: Cy5 PLAGL motif DNA (dsDNA)
# DNA 1: GATCCATGGCCCCATGGATG
# DNA 2: CATCCATGGGGCCATGGATC
# Molecular target: ZFTA ZF1 (UniProt C9JLR9 81-172)
# Assay: fluorescence polarization; FP: 25 mM citrate pH 5.6, 150 mM NaCl, 0.5 mM TCEP, 100 nM DNA, 15 nM-7.5 uM protein, 20 min, room temperature; NMR: same buffer with 5% D2O, 25 C
# Settings: protein: recombinant; tags: none (His6-MBP removed by TEV); label: 5'-Cy5 on top strand; blunt
# ZFTA ZF1, sequence (C9JLR9 81-172): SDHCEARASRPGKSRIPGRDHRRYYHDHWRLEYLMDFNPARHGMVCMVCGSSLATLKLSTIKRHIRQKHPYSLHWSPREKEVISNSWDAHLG
binder,measurement,value
B1,binding result,binds
